Reference: US20250136718A1 (MABWELL THERAPEUTICS, published 2025)
Blank lines part the entries; values can stand above or below the binder they belong to.

Key:
[1] = biological target: T1, matriptase-3 (TMPRSS7) over-expressed in HEK293T cells (human, UniProt Q7RTY8 1-843); test: FACS on permeabilized HEK293T cells over-expressing matriptase-3 (TMPRSS7)
T1 sequence: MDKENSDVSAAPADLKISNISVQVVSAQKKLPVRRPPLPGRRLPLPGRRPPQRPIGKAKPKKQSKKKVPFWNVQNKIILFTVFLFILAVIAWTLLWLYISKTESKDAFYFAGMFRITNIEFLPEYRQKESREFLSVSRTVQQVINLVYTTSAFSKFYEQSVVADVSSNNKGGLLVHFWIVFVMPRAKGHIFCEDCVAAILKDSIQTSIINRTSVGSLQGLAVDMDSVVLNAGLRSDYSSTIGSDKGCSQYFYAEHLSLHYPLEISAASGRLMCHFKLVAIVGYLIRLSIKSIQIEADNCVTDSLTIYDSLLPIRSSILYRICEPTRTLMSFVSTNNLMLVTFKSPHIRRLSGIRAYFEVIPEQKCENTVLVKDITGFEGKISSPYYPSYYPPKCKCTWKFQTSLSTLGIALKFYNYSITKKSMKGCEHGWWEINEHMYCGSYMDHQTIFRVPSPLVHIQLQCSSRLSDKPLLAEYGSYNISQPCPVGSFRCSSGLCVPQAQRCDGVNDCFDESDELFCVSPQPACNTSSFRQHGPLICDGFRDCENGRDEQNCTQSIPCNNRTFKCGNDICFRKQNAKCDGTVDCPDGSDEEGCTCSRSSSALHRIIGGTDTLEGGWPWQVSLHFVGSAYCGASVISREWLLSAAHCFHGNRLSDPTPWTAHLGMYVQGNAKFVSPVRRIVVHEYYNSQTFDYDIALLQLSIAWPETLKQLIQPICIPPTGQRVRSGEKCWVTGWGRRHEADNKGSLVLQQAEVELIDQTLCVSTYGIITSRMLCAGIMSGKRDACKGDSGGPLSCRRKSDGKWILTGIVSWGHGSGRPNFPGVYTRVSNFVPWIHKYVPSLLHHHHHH
Description: To determine if anti-TMPRSS6 antibodies bind to homologous matriptases, HEK293T cells over-expressing matriptase (ST14) (SEQ ID NO: 100) (FIGS. 5B, 5E, 5H, 5K, 5N, 5Q), and HEK293T cells over-expressing matriptase-3 (TMPRSS7) (SEQ ID NO: 101) (FIGS. 5C, 5F, 5I, 5L, 5O, 5R) were collected (generated in house). HEK293T cells stably expressing human TMPRSS6 (matriptase-2) (SEQ ID NO: 97) (generated by LakePharma Inc as described above, FIGS. 5A, 5D, 5G, 5J, 5M, 5P) were used as a positive control and HEK293T cells (FIGS. 5A-5R) were used as a negative control (as described above). Cells were blocked and permeabilized with dPBS+3% BSA+0.1% Tween-20 before incubation with various anti-TMPRSS6 antibodies diluted in dPBS+3% BSA+0.1% Tween-20. Cells were incubated with anti-TMPRSS6 antibodies and their humanized variants at a concentration of roughly 1 μg/ml for 1 hr. After incubation, cells were washed with dPBS and incubated with goat anti-mouse IgG conjugated with AlexaFluor-488 (Invitrogen, FIGS. 5A-5I) or goat anti-human IgG conjugated with Allophycocyanin (APC) (Jackson Immuno Research, FIGS. 5J-5R) as a 2° antibody. At last, cells were washed with dPBS and re-suspended with dPBS+1 mM EDTA, and then subjected to FACS analysis using a NOVOCYTE® Flow Cytometer. Bound antibody was determined by excitation at 488 nm and measurement of emission (FITC-A) at 530 nm (FIGS. 5A-5I) or by excitation at 640 nm and measurement of emission (APC-A) at 675 nm (FIGS. 5J-5R). Results for these assays are shown in histogram plots in FIGS. 5A-5R.

[2] = biological target: T2, human ecto-TMPRSS6-FLAG (UniProt Q8IU80 77-811); test: BLI (Octet)
T2 chain: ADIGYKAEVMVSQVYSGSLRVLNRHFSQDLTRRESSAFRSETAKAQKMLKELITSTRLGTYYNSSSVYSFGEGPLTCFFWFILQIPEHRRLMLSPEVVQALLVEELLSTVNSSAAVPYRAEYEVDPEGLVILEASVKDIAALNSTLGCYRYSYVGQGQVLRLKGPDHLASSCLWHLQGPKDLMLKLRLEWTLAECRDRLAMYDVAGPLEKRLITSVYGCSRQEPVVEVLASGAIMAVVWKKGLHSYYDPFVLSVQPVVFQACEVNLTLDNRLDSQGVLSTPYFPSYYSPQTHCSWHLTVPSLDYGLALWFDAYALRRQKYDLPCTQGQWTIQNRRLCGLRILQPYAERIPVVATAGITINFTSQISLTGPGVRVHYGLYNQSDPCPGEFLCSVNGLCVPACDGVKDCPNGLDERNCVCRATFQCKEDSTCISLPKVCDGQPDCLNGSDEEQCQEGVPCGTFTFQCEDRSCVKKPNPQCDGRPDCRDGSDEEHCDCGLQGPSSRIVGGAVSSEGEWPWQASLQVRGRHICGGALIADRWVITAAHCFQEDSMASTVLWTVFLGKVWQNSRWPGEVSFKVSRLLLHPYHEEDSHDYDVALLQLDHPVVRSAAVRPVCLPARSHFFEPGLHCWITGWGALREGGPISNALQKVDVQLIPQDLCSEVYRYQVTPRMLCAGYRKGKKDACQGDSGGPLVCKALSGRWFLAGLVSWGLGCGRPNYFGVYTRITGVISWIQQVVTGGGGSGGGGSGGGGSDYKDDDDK

B2: humanized anti-TMPRSS6 antibody variant hzMWTx-001 Var (antibody, human IgG1, kappa, N297A, V domains shown)
VH: EVQLVQSGAEVKKPGASVKVSCKASGYTFTSYWITWVRQAPGQRLEWIGNIYPGSGSTYYNEKFKSKATITRDTSSRTAYMELSSLRSEDTAVYYCAPYDADYAMDYWGQGTLVTVSS
VL: DIQMTQSPSSLSASVGDRVTITCKASQDISNYLSWFQQKPGKAPKLLIYRANRLVEGVPSRFSGSGSGTDFTLTISSLQPEDFATYFCLQYDEFPLTFGGGTKVEIKR
notes: Human IgG1 / kappa
binding result [1]: no binding (tested: roughly 1 µg/ml)
Kd [2]: 3.36 nM

B3: MWTx-002 anti-TMPRSS6 monoclonal antibody (antibody, mouse IgG2b, kappa, V domains shown)
VH: EVQLQQSGAELVKPGASVKLSCTASGFNIKDYYIHWVKERTEQGLEWFGRIDPEDGESEYAPKFQGKATLTADTSSNTAYLQLSSLTSEDTAVYYCTRGDSMMVTYFDYWGQGTTLTVSS
VL: DIVMTQSHKFMSTSVGDRVSITCKASQDVSTAVAWYQQKPGQSPKLLIYWAFTRHTGVPDRFTSTGSGTDYALTISSVQAEDLALYYCQQHYRSPWTFGGGTKLEIKR
notes: Mouse monoclonal antibody from hybridoma (ATCC PTA-126760)
binding result [1]: no binding (tested: roughly 1 µg/ml)
Kd [2]: 0.82 nM

B5: MWTx-001 anti-TMPRSS6 monoclonal antibody (antibody, mouse IgG2a, kappa, V domains shown)
VH: QVQLQQPGAELAKPGASVKMSCKASGYTFTSYWITWVKQRPGQDLEWIGNIYPGSGSTYYNEKFKSKATLTVDTSSRTAYMQLSSLTSADSAVYYCAPYDSDYAMDYWGQGTSVTVSS
VL: DIKMTQSPSSMYASLGERVTITCKASQDINNYLSWFQQKPGKSPKTLIYRANRLVDGVPSRVSGSGSGQDYSLTISSLEYEDVGIYFCLQYDEFPLTFGAGTKLELKR
notes: Mouse monoclonal antibody from hybridoma (ATCC PTA-126759)
binding result [1]: no binding (tested: roughly 1 µg/ml)
Kd [2]: 0.66 nM

B6: humanized anti-TMPRSS6 antibody variant hzMWTx-003 Var (antibody, human IgG1, kappa, L234A L235A, V domains shown)
VH: QVQLVQSGAEVKKPGASVKVSCKASGFNIEDYYMHWVRQAPGQRLEWMGRIDPEDAETTYSPKFQGRVTIIPDTSANTAYMELSSLRSEDTAVYYCARSIYLDPMDYWGQGTLVTVSS
VL: DIQMTQSPKSLSASVGDRVTITCRASQDVTTALAWYQQKPGQSPKLLIYWATTRHSGVPSRFSGSGSGTDFTLTISSLQPEDFATYYCQQHYSTPYTFGQGTKLEIKR
notes: Human IgG1 / kappa
binding result [1]: no binding (tested: roughly 1 µg/ml)
Kd [2]: 13.7 nM

More lines, in order of falling Kd [2], values ahead:

binding result [1]: no binding (tested: roughly 1 µg/ml)
Kd [2]: 18.4 nM
B4: humanized anti-TMPRSS6 antibody variant hzMWTx-002 Var (antibody, human IgG1, kappa, N297A, V domains shown)
VH: EVQLVQSGAEVKKPGASVKVSCKASGFNIKDYYIHWVRQATGQGLEWMGRIDPEDAESEYAPKFQGRVTITADTSTDTAYMELSSLRSEDTAVYYCTRGDSMMVTYFDYWGQGTLVTVSS
VL: DIQMTQSPSSLSASVGDRVTITCKASQDVSTAVAWYQQKPGKAPKLLIYWAFTRHTGVPSRFSGSGSGTDYALTISSLQPEDFATYYCQQHYRSPWTFGGGTKVEIKR
notes: Human IgG1 / kappa

binding result [1]: no binding (tested: roughly 1 µg/ml)
Kd [2]: 6.4 nM
B1: MWTx-003 anti-TMPRSS6 monoclonal antibody (antibody, mouse IgG2b, kappa, V domains shown)
VH: EVQLQQSGAELVKPGASVKLSCTASGFNIEDYYIHWVKERTEQGLEWIGRIDPEDGETTYAPQFQGKATIIPDTSSNTAYMQLSSLTSEDAAVYYCARSIYLDPMDYWGQGTSVTVSS
VL: DIVMTQSHKFMSTSVGDRVSITCKASQDVTTAVAWYQQKPGQSPKILIYWATTRHTGVPDRFTGSISGTTYILTISSVQAEDLALYYCQQHYSTPYTFGGGTKLEIKR
notes: Mouse monoclonal antibody from hybridoma (ATCC PTA-126761); The recombinant version r4K12B has the same HC and LC; also called r4K12B; recombinant MWTx-003
